2 substances from publication PMC2119998 can be followed below.

Common to all, as to experiment: radioligand binding
Assay [1] concerns the target Ng-CAM and N-CAM (physiological salt).
In a further assay the target is laminin.
Assay [2] deals with Ng-CAM (chicken) (chicken) (UniProt Q03696).

pKd: −log10 of the molar value.

Sequence of neurocan (P55067 23-1257): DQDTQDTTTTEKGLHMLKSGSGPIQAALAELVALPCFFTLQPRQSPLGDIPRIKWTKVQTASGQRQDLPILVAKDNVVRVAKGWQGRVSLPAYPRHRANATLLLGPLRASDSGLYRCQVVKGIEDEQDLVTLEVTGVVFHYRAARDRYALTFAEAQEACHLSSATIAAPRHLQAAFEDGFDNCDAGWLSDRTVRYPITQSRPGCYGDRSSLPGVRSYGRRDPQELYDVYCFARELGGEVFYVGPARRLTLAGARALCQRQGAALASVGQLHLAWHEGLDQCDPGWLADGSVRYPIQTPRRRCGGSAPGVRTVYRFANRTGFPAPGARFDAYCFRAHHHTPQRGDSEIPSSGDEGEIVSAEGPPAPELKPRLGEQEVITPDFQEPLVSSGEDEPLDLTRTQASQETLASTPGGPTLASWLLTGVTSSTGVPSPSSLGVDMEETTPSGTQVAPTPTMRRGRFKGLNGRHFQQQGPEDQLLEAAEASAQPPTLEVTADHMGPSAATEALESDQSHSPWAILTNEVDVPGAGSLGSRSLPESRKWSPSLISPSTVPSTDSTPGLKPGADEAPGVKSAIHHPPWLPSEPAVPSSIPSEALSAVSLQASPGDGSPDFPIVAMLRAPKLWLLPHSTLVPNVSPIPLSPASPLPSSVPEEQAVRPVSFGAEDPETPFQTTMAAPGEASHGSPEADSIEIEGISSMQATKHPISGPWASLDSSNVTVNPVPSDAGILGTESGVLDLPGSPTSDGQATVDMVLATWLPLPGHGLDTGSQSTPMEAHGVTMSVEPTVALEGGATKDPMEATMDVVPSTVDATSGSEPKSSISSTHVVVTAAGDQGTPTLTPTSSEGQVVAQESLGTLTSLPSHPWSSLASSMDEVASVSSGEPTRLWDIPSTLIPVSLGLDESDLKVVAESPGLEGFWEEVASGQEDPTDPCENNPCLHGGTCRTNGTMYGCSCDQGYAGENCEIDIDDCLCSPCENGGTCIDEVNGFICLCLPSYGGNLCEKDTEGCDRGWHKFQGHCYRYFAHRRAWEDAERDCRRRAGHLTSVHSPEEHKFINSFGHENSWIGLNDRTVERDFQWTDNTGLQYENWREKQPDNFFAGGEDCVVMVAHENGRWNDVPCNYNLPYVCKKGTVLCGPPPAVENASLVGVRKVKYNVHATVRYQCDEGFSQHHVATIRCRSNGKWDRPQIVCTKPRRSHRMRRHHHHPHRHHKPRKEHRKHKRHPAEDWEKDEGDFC
Sequence of Ng-CAM (chicken) (chicken) (Q03696 21-1266): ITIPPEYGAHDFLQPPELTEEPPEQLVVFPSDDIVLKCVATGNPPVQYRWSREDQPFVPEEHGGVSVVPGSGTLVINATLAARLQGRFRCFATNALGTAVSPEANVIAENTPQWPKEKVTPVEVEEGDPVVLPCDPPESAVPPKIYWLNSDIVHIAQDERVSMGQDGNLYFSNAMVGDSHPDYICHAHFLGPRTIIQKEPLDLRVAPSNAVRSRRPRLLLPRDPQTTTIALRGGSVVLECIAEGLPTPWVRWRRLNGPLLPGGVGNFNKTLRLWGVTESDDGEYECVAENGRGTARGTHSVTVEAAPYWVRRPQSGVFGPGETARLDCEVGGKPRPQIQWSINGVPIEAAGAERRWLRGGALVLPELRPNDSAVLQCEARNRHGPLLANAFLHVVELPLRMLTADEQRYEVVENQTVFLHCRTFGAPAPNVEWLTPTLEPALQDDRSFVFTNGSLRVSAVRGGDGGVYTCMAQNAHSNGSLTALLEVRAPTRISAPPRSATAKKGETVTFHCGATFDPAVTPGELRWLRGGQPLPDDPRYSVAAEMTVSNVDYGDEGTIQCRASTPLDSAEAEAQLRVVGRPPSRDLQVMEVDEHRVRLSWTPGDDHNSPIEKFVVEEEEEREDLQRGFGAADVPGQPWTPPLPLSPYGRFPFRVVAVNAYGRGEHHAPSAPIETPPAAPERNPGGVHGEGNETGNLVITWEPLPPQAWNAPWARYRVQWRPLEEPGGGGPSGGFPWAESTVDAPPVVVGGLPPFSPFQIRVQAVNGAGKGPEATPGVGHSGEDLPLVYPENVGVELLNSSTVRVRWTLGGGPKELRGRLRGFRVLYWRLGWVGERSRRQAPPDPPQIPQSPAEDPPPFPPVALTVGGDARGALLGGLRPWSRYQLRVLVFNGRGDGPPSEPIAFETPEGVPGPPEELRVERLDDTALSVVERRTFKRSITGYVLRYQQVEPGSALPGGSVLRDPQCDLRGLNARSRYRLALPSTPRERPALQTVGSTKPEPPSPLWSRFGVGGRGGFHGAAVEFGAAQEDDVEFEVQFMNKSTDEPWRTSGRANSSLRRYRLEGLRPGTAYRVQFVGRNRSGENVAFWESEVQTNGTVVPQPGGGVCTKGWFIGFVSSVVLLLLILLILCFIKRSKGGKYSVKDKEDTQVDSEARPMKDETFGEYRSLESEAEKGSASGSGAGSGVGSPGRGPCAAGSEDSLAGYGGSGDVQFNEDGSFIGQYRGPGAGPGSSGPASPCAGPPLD

Consider “neurocan (from UniProt P55067 23-1257) (natural protein)”, for which the percent decrease of binding in isotonic against hypotonic buffer in assay [1] lay within 35 to 60%. The substance further yielded a percent of total counts bound with laminin of 9%.

As for neurocan-C (domain or fragment), in assay [2], the pKd was 8.28 and the t1/2 of dissociation in excess buffer was found to be 4 h.

Usually pKd stands for the negative decadic logarithm of the Kd, by convention in mol/L. Low readings indicate a high Kd, high ones a low Kd.
